Data: PMC2640967

Target: Vps24 (full-length, two-hybrid fusion) (A. nidulans)
Assay: two-hybrid

Molecule | fold lower β-galactosidase activity than with DidB^Did2 [fold] | fold β-galactosidase activity with Vps24 over that with DidB [fold]
Vps4 (two-hybrid fusion) (enzyme) | 30 | 
PalB-(1–130) prey (two-hybrid fusion) (domain or fragment) MSRTSSAPSQKSLISRALKAERDVITASSQSQALDAAIDAAEHYMKALALTSSSKDRNVLDAKCKEWLTRAEKIKGSEDWRSVAQSRRSRLRTPASTRKLTTREDIILLQGAKLNGFIFPPWKAEPSLTE |  | 10
